# Results from PMC8113581 (Nature Communications, 2021).
# B1: P4A1 (antibody, V domains shown)
# VH: EVQLVESGGGLIQPGGSLRLSCAASGFIVSSNYMSWVRQAPGKGLEWVSIIYSGGSTFYADSVKGRFTISRDNSKNTLYLQMNSLRVEDTAVYYCARDLQELGSLDYWGQGTLVTVSS
# VL: DIQMTQSPSSVSASVGDRVTITCRASQGISSWLAWYQQKPGKAPKLLIYAASSLQSGVPSRFSGSGSGTDFTLTISSLQPEDFATYYCQEANSFPYTFGQGTKLEIK
# notes: also called P4A1 (IgG1); IgG1 form P4A1
# Target: T1, SARS-CoV-2 spike S1 domain (D614G) (SARS-CoV-2, Wuhan-Hu-1 background with …, UniProt A0A6H1PJZ3, strain)
# T1 construct: also called D614G S1 variant; source: bought: Sino Biological
# Test: SPR
# Details: both partners purified
binder,measurement,value
B1,binding result,binds
